Measured values published in patent publication US20180362632A1 (published 2018).
Values joined by “and” are separate entries in the source; they are usually repeats but may differ in a detail not shown here. Equal values may be shown once. Read-outs that look alike come from different tables or passages of the source.

What was measured:
[1] = target: T1, recombinant human GM-CSF protein (human, UniProt P04141 18-144); assay: ELISA
[2] = target: T1, recombinant human GM-CSF protein; assay: ELISA; remark: listed apart in the source

T1 sequence (P04141 18-144): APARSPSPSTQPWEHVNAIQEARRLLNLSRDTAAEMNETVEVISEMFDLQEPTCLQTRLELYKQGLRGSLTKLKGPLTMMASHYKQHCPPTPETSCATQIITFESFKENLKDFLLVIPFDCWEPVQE

B1: 50C5 chimera (antibody, V domains shown)
VH: QVQLQQSAAELVRPGASVKMSCKASGYIFTPYSIHWIKQRPGQGLEWIGYINPSTGYIEYNQHFKDRTTLTADKSSSTAYMQLRSLTSEDSAVYYCARGGDYEGYFDYWGQGTTLTVSS
VL: DIQMTQSPDSLSASVGETVTITCRLNENIYSFLAWYQQRQGKSPQLLVYNAETLAEDVPSRFSGSGSGTQFSLKISSLQTDDFGTYYCQQHYGTPYTFGGGTNLEIE
- EC50 [1]: 464 pM and 483 pM
- EC50 [2]: 547 pM
